According to patent US20150266956A1 (UNIVERSITY OF ROCHESTER, published 2015):

Biological target: T1, murine DC-STAMP (dendritic cell-specific transmembrane protein) (mouse, UniProt Q7TNJ0 1-470)
T1 construct: whole, on cells; Endogenous protein; In the immunoprecipitation and immunoblot it came from cell lysates (about 50 kDa reduced, about 100 kDa non-reduced); also called mouse DC-STAMP
T1 sequence (looked up): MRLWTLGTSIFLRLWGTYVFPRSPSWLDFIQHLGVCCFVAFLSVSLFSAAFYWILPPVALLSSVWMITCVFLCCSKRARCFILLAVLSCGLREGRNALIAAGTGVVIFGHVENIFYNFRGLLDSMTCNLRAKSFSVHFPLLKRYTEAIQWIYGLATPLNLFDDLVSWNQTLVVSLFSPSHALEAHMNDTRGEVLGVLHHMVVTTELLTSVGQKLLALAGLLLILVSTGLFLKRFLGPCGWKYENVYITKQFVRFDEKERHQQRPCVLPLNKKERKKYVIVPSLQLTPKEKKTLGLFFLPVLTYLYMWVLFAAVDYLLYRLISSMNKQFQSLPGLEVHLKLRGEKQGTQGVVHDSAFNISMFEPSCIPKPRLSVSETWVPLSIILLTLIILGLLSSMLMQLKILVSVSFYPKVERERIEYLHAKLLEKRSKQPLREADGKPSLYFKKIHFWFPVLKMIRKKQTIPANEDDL
Assay: immunoprecipitation and immunoblot of RANKL-treated CD11b+ RAW 264.7 cell lysate (FIG. 1A)
Protocol: After immunoprecipitation with the 1A2 mAb, immunoblotting was performed with either the 1A2 mAb, the KR104 rabbit polyclonal antibody (positive control), or an anti-mouse IgG antibody (negative control) under non-reducing (nr: −β-mercaptoethanol) or reducing (r: +β-mercaptoethanol) conditions. M: protein marker, black and white scanned overlay. Blot is representative of 4 separate trials. […] Numbers below bands represent densitometry values used as a semiquantitative measure of relative protein level. Blot is representative of 2 separate trials.
To study surface protein expression, a mAb was generated against a peptide in the fourth extracellular domain of DC-STAMP. For comparison, a polyclonal DC-STAMP antibody was used that has histologically shown surface expression on OC (Kukita et al., J. Exp. Med. 200:941-6 (2004)). CD11b+ cells were cultured for 2 days with RANKL and extracted membrane fraction proteins for immunoprecipitation with the 1A2 mAb. […] Both antibodies also recognize a protein at double the molecular weight (˜100 kDa) under non-reducing (nr) conditions. In both reducing and non-reducing conditions, the 1A2 DC-STAMP mAb has a more intense band for the same amount of protein loaded in each lane. […] The 1A2 mAb clone was conjugated to FITC and used to determine if surface membrane DC-STAMP on CD11b+ cells could be detected by flow cytometry.

B1: DC-STAMP monoclonal antibody 1A2 (antibody, V domains shown)
VH: QVTLKESGPGILQPSQTLSLTCSFSGFSLSTFGMGVGWIRQPSGKGLEWLAHIWWDDDKYYSPALKSRLTISKDTSKNQVFLKIANVDTADTATYYCVRIGSRSPFAYWGPGTLVTVSS
VL: DIVMTQAAFSNPVTLGTSASISCRSSKSLLHSNGITYLYWYLQKPGQSPQVLIYQMSNLASGVPDRFSSSGSGTDFTLRISRVEAEDVGVYYCAQNLELPWTFGGGTKLEIKR
notes: The antibody was FITC-conjugated for flow cytometry and immunofluorescence; also called 1A2 mAb; clone 1A2
binding result: binds
